{"source": "patent US11931406", "key": {"[1]": {"target": "influenza HA protein (Flu A HA) (influenza A)"}, "[2]": {"target": "YFV X-SS-prME-XX (yellow fever virus 17D) (yellow fever virus strain 17D) (UniProt P03314)", "sequence (P03314 92-788 limits assumed)": "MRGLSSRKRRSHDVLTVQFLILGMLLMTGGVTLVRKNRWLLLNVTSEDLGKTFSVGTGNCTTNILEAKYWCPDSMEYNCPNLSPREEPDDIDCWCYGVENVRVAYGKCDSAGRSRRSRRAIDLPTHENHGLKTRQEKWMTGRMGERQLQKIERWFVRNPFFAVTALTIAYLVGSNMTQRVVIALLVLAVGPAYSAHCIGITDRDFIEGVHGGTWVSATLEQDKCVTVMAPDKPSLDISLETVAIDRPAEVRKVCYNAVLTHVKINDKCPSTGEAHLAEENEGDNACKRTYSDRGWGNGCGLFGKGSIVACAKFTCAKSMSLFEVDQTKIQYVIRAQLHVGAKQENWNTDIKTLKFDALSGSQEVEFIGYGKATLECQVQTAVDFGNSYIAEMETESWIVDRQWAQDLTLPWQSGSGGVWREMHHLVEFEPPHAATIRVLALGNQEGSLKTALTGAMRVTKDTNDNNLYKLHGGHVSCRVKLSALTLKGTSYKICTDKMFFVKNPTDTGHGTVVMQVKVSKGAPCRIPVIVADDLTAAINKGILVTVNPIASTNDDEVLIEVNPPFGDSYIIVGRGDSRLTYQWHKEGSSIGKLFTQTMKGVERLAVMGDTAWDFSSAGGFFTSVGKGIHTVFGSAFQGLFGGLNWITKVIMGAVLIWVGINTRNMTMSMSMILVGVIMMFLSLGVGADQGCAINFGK"}}, "data": [{"substance": "anti YF virus specific antibody (sc-58083 from Santa Cruz)", "values": [{"measurement": "FITC positive cells", "setting": "[1]", "result": 45.1, "unit": "%"}, {"measurement": "FITC positive cells", "setting": "[2]", "result": 82, "unit": "%"}]}]}
